Assay results reported in PMC8274477 (Frontiers in Cell and Developmental Biology, 2021).

target: T1, OTULIN (OTU deubiquitinase with linear linkage specificity, FAM105B), His-tagged, biotin-labelled (human, UniProt Q96BN8 1-352, biotin (label; sites not stated)); assay: peptide or protein array; HuProt human proteome microarray; 5 ug/5 ml biotin-labelled LUBAC or OTULIN in solution, 1 h at room temperature; Cy5-streptavidin, scanned at 635 nm; BSA as negative control; hits: Z-score >= 3 and I_(Mean_Ratio) >= 1.4; settings: both partners purified
T1 construct: OTULIN (FAM105B), cDNA in pET28a; also called HIS-OTULIN; source: E. coli BL21 (DE3), purified (His-tag Purification Resin), labelled with biotin; not shown: His6, N-terminal, kept

Row | Binder | binding result
1 | OVOL2 (natural protein, human, UniProt Q9BRP0 1-275, looked up, OVOL2; protein on the human proteome microarray; source: spotted on the HuProt human proteome microarray) MPKVFLVKRRSLGVSVRSWDELPDEKRADTYIPVGLGRLLHDPPEDCRSDGGSSSGSGSSSAGEPGGAESSSSPHAPESETPEPGDAEGPDGHLATKQRPVARSKIKFTTGTCSDSVVHSCDLCGKGFRLQRMLNRHLKCHNQVKRHLCTFCGKGFNDTFDLKRHVRTHTGIRPYKCNVCNKAFTQRCSLESHLKKIHGVQQQYAYKQRRDKLYVCEDCGYTGPTQEDLYLHVNSAHPGSSFLKKTSKKLAALLQGKLTSAHQENTSLSEEEERK | binds
2 | NECAP2 (natural protein, human, UniProt Q9NVZ3 1-263, looked up, NECAP2; protein on the human proteome microarray; source: spotted on the HuProt human proteome microarray) MEESGYESVLCVKPDVHVYRIPPRATNRGYRAAEWQLDQPSWSGRLRITAKGQMAYIKLEDRTSGELFAQAPVDQFPGTAVESVTDSSRYFVIRIEDGNGRRAFIGIGFGDRGDAFDFNVALQDHFKWVKQQCEFAKQAQNPDQGPKLDLGFKEGQTIKLNIANMKKKEGAAGNPRVRPASTGGLSLLPPPPGGKTSTLIPPPGEQLAVGGSLVQPAVAPSSGGAPVPWPQPNPATADIWGDFTKSTGSTSSQTQPGTGWVQF | binds
3 | ISG20 (natural protein, ISG20; protein on the human proteome microarray; source: spotted on the HuProt human proteome microarray) not shown | binds
4 | HTATIP2 (natural protein, human, UniProt Q9BUP3 1-242, looked up, HTATIP2; protein on the human proteome microarray; source: spotted on the HuProt human proteome microarray) MAETEALSKLREDFRMQNKSVFILGASGETGRVLLKEILEQGLFSKVTLIGRRKLTFDEEAYKNVNQEVVDFEKLDDYASAFQGHDVGFCCLGTTRGKAGAEGFVRVDRDYVLKSAELAKAGGCKHFNLLSSKGADKSSNFLYLQVKGEVEAKVEELKFDRYSVFRPGVLLCDRQESRPGEWLVRKFFGSLPDSWASGHSVPVVTVVRAMLNNVVRPRDKQMELLENKAIHDLGKAHGSLKP | binds
5 | LOR (natural protein, human, UniProt P23490 1-312, looked up, LOR; protein on the human proteome microarray; source: spotted on the HuProt human proteome microarray) MSYQKKQPTPQPPVDCVKTSGGGGGGGGSGGGGCGFFGGGGSGGGSSGSGCGYSGGGGYSGGGCGGGSSGGGGGGGIGGCGGGSGGSVKYSGGGGSSGGGSGCFSSGGGGSGCFSSGGGGSSGGGSGCFSSGGGGSSGGGSGCFSSGGGGFSGQAVQCQSYGGVSSGGSSGGGSGCFSSGGGGGSVCGYSGGGSGCGGGSSGGSGSGYVSSQQVTQTSCAPQPSYGGGSSGGGGSGGSGCFSSGGGGGSSGCGGGSSGIGSGCIISGGGSVCGGGSSGGGGGGSSVGGSGSGKGVPICHQTQQKQAPTWPSK | binds
6 | MIF (natural protein, human, UniProt P14174 1-115, looked up, MIF; protein on the human proteome microarray; source: spotted on the HuProt human proteome microarray) MPMFIVNTNVPRASVPDGFLSELTQQLAQATGKPPQYIAVHVVPDQLMAFGGSSEPCALCSLHSIGKIGGAQNRSYSKLLCGLLAERLRISPDRVYINYYDMNAANVGWNNSTFA | binds
7 | MPST (natural protein, human, UniProt P25325 1-297, looked up, MPST; protein on the human proteome microarray; source: spotted on the HuProt human proteome microarray) MASPQLCRALVSAQWVAEALRAPRAGQPLQLLDASWYLPKLGRDARREFEERHIPGAAFFDIDQCSDRTSPYDHMLPGAEHFAEYAGRLGVGAATHVVIYDASDQGLYSAPRVWWMFRAFGHHAVSLLDGGLRHWLRQNLPLSSGKSQPAPAEFRAQLDPAFIKTYEDIKENLESRRFQVVDSRATGRFRGTEPEPRDGIEPGHIPGTVNIPFTDFLSQEGLEKSPEEIRHLFQEKKVDLSKPLVATCGSGVTACHVALGAYLCGKPDVPIYDGSWVEWYMRARPEDVISEGRGKTH | binds
8 | ODAM (natural protein, human, UniProt A1E959 16-279, looked up, ODAM; protein on the human proteome microarray; source: spotted on the HuProt human proteome microarray) APLIPQRLMSASNSNELLLNLNNGQLLPLQLQGPLNSWIPPFSGILQQQQQAQIPGLSQFSLSALDQFAGLLPNQIPLTGEASFAQGAQAGQVDPLQLQTPPQTQPGPSHVMPYVFSFKMPQEQGQMFQYYPVYMVLPWEQPQQTVPRSPQQTRQQQYEEQIPFYAQFGYIPQLAEPAISGGQQQLAFDPQLGTAPEIAVMSTGEEIPYLQKEAINFRHDSAGVFMPSTSPKPSTTNVFTSAVDQTITPELPEEKDKTDSLREP | binds
9 | GSTZ1 (natural protein, human, UniProt O43708 1-216, looked up, GSTZ1; protein on the human proteome microarray; source: spotted on the HuProt human proteome microarray) MQAGKPILYSYFRSSCSWRVRIALALKGIDYKTVPINLIKDRGQQFSKDFQALNPMKQVPTLKIDGITIHQSLAIIEYLEEMRPTPRLLPQDPKKRASVRMISDLIAGGIQPLQNLSVLKQVGEEMQLTWAQNAITCGFNALEQILQSTAGIYCVGDEVTMADLCLVPQVANAERFKVDLTPYPTISSINKRLLVLEAFQVSHPCRQPDTPTELRA | binds
10 | KHDRBS3 (natural protein, human, UniProt O75525 1-346, looked up, KHDRBS3; protein on the human proteome microarray; source: spotted on the HuProt human proteome microarray) MEEKYLPELMAEKDSLDPSFTHALRLVNQEIEKFQKGEGKDEEKYIDVVINKNMKLGQKVLIPVKQFPKFNFVGKLLGPRGNSLKRLQEETLTKMSILGKGSMRDKAKEEELRKSGEAKYFHLNDDLHVLIEVFAPPAEAYARMGHALEEIKKFLIPDYNDEIRQAQLQELTYLNGGSENADVPVVRGKPTLRTRGVPAPAITRGRGGVTARPVGVVVPRGTPTPRGVLSTRGPVSRGRGLLTPRARGVPPTGYRPPPPPPTQETYGEYDYDDGYGTAYDEQSYDSYDNSYSTPAQSGADYYDYGHGLSEETYDSYGQEEWTNSRHKAPSARTAKGVYRDQPYGRY | binds
11 | NUDT16L1 (natural protein, human, UniProt Q9BRJ7 1-211, looked up, NUDT16L1; protein on the human proteome microarray; source: spotted on the HuProt human proteome microarray) MSTAAVPELKQISRVEAMRLGPGWSHSCHAMLYAANPGQLFGRIPMRFSVLMQMRFDGLLGFPGGFVDRRFWSLEDGLNRVLGLGLGCLRLTEADYLSSHLTEGPHRVVAHLYARQLTLEQLHAVEISAVHSRDHGLEVLGLVRVPLYTQKDRVGGFPNFLSNAFVSTAKCQLLFALKVLNMMPEEKLVEALAAATEKQKKALEKLLPASS | binds
12 | KLHDC9 (natural protein, human, UniProt Q8NEP7 1-349, looked up, KLHDC9; protein on the human proteome microarray; source: spotted on the HuProt human proteome microarray) MAVAVPPGRAAGSGWAWRPVARDALLARAFHSCTELRGRFYLVGGLLAGGAREPSSDTVVFDPARGQAVRLGARGSPPRSHHDAAPVDGRWLCVVGGWDGSRRLATVTALDTERGVWEAWTGTPGDCPPAGLSSHTCTRISDRELQVAGREGGIHTQRRYGSIYTLRLDPSARTYCYKQEGCHTASRSGHCAALLQTPGPHPGHQLLLFGGCNLAEPEVAGHWSHGKIKEEPPVAPHLMEQLARLVSSGQGSQKGPHGLRHHSCSVVGPFAVLFGGETLTRARDTICNDLYIYDTRTSPPLWFHFPCADRGMKRMGHRTCLWNDQLYLVGGFGEDGRTASPQVCILDFI | binds

Results, then the binder that gave them:

Row | binding result | Binder
13 | binds | MSI2 (natural protein, MSI2; protein on the human proteome microarray; source: spotted on the HuProt human proteome microarray) not shown
14 | binds | NUDT6 (natural protein, human, UniProt P53370 1-316, looked up, NUDT6; protein on the human proteome microarray; source: spotted on the HuProt human proteome microarray) MRQPLSWGRWRAMLARTYGPGPSAGYRWASGAQGYVRNPPVGACDLQGELDRFGGISVRLARLDALDRLDAAAFQKGLQAAVQQWRSEGRTAVWLHIPILQSRFIAPAASLGFCFHHAESDSSTLTLWLREGPSRLPGYASHQVGVAGAVFDESTRKILVVQDRNKLKNMWKFPGGLSEPEEDIGDTAVREVFEETGIKSEFRSVLSIRQQHTNPGAFGKSDMYIICRLKPYSFTINFCQEECLRCEWMDLNDLAKTENTTPITSRVARLLLYGYREGFDKIDLTVEELPAVYTGLFYKLYHKELPENYKTMKGID
15 | binds | MAGEB1 (natural protein, human, UniProt P43366 1-347, looked up, MAGEB1; protein on the human proteome microarray; source: spotted on the HuProt human proteome microarray) MPRGQKSKLRAREKRRKAREETQGLKVAHATAAEKEECPSSSPVLGDTPTSSPAAGIPQKPQGAPPTTTAAAAVSCTESDEGAKCQGEENASFSQATTSTESSVKDPVAWEAGMLMHFILRKYKMREPIMKADMLKVVDEKYKDHFTEILNGASRRLELVFGLDLKEDNPSGHTYTLVSKLNLTNDGNLSNDWDFPRNGLLMPLLGVIFLKGNSATEEEIWKFMNVLGAYDGEEHLIYGEPRKFITQDLVQEKYLKYEQVPNSDPPRYQFLWGPRAYAETTKMKVLEFLAKMNGATPRDFPSHYEEALRDEEERAQVRSSVRARRRTTATTFRARSRAPFSRSSHPM
16 | binds | NME2 (natural protein, human, UniProt P22392 1-152, looked up, NME2; protein on the human proteome microarray; source: spotted on the HuProt human proteome microarray) MANLERTFIAIKPDGVQRGLVGEIIKRFEQKGFRLVAMKFLRASEEHLKQHYIDLKDRPFFPGLVKYMNSGPVVAMVWEGLNVVKTGRVMLGETNPADSKPGTIRGDFCIQVGRNIIHGSDSVKSAEKEISLWFKPEELVDYKSCAHDWVYE
17 | binds | GTF2B (natural protein, human, UniProt Q00403 1-316, looked up, GTF2B; protein on the human proteome microarray; source: spotted on the HuProt human proteome microarray) MASTSRLDALPRVTCPNHPDAILVEDYRAGDMICPECGLVVGDRVIDVGSEWRTFSNDKATKDPSRVGDSQNPLLSDGDLSTMIGKGTGAASFDEFGNSKYQNRRTMSSSDRAMMNAFKEITTMADRINLPRNIVDRTNNLFKQVYEQKSLKGRANDAIASACLYIACRQEGVPRTFKEICAVSRISKKEIGRCFKLILKALETSVDLITTGDFMSRFCSNLCLPKQVQMAATHIARKAVELDLVPGRSPISVAAAAIYMASQASAEKRTQKEIGDIAGVADVTIRQSYRLIYPRAPDLFPTDFKFDTPVDKLPQL
18 | binds | NABP1 (natural protein, human, UniProt Q96AH0 1-204, looked up, NABP1; protein on the human proteome microarray; source: spotted on the HuProt human proteome microarray) MNRVNDPLIFIRDIKPGLKNLNVVFIVLEIGRVTKTKDGHEVRSCKVADKTGSITISVWDEIGGLIQPGDIIRLTRGYASMWKGCLTLYTGRGGELQKIGEFCMVYSEVPNFSEPNPDYRGQQNKGAQSEQKNNSMNSNMGTGTFGPVGNGVHTGPESREHQFSHAGRSNGRGLINPQLQGTASNQTVMTTISNGRDPRRAFKR
19 | binds | NTPCR (natural protein, human, UniProt Q9BSD7 1-190, looked up, NTPCR; protein on the human proteome microarray; source: spotted on the HuProt human proteome microarray) MARHVFLTGPPGVGKTTLIHKASEVLKSSGVPVDGFYTEEVRQGGRRIGFDVVTLSGTRGPLSRVGLEPPPGKRECRVGQYVVDLTSFEQLALPVLRNADCSSGPGQRVCVIDEIGKMELFSQLFIQAVRQTLSTPGTIILGTIPVPKGKPLALVEEIRNRKDVKVFNVTKENRNHLLPDIVTCVQSSRK
20 | binds | NAT6 (natural protein, human, UniProt Q93015 1-286, looked up, NAT6; protein on the human proteome microarray; source: spotted on the HuProt human proteome microarray) MELILSTSPAELTLDPACQPKLPLDSTCQPEMTFNPGPTELTLDPEHQPEETPAPSLAELTLEPVHRRPELLDACADLINDQWPRSRTSRLHSLGQSSDAFPLCLMLLSPHPTLEAAPVVVGHARLSRVLNQPQSLLVETVVVARALRGRGFGRRLMEGLEVFARARGFRKLHLTTHDQVHFYTHLGYQLGEPVQGLVFTSRRLPATLLNAFPTAPSPRPPRKAPNLTAQAAPRGPKGPPLPPPPPLPECLTISPPVPSGPPSKSLLETQYQNVRGRPIFWMEKDI
